Data as given in article PMC11830004, “In situ and in vitro cryo-EM reveal structures of mycobacterial encapsulin assembly intermediates” (Communications Biology, 2025).
Values joined by “and” are separate entries in the source; they are usually repeats but may differ in a detail not shown here. Equal entries are not always repeated.

Target: the molecule itself
Experiment: cryo-EM structure

B1: Mycobacterium tuberculosis encapsulin shell protein (Enctb) (natural protein)
chain: MNNLYRDLAPVTEAAWAEIELEAARTFKRHIAGRRVVDVSDPGGPVTAAVSTGRLIDVKAPTNGVIAHLRASKPLVRLRVPFTLSRNEIDDVERGSKDSDWEPVKEAAKKLAFVEDRTIFEGYSAASIEGIRSASSNPALTLPEDPREIPDVISQALSELRLAGVDGPYSVLLSADVYTKVSETSDHGYPIREHLNRLVDGDIIWAPAIDGAFVLTTRGGDFDLQLGTDVAIGYASHDTDTVRLYLQETLTFLCYTAEASVALSH
notes: also called Rv0798c; copies: 60
**Q.** How did the “stoichiometry N” value turn out when B1 was run?
**A.** 60 and 48 and 52 and 54
